In data set [1] the target is T1, Lsm2-8 complex (Saccharomyces cerevisiae, UniProt P38203;P57743;P40070;P40089;Q06406;P53905;P47093 …).
T1 sequence 1: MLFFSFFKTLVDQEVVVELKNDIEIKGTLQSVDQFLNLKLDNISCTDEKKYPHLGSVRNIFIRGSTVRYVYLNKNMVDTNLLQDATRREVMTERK
T1 sequence 2: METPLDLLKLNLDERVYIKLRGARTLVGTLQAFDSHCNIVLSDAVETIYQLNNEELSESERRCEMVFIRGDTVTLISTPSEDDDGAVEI
T1 sequence 3: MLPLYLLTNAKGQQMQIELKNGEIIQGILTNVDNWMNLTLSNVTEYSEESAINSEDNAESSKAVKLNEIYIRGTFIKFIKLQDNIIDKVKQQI
T1 sequence 4: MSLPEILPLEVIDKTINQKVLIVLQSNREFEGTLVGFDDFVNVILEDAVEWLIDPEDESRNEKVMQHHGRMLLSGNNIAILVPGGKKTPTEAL
T1 sequence 5: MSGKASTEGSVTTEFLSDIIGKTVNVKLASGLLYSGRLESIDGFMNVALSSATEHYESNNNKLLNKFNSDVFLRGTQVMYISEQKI
T1 sequence 6: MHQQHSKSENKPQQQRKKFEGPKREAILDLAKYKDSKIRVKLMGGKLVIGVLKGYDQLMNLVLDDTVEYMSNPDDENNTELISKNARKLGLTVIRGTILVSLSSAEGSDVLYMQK
T1 sequence 7: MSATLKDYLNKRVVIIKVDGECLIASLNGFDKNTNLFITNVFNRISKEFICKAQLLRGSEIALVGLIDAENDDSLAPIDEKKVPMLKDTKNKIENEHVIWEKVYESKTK
The data set can be described thus: fluorescence polarization; Hill 1.3; EMSA: 5 nM Cy3-U6, 100 mM KCl, 20% sucrose, 20 mM bis-tris/10 mM HCl, 1 mM EDTA, 1 mM TCEP, 0.01% Triton X-100, 0.1 mg/mL tRNA, 0.01 mg/mL heparin, 0.1 mg/mL BSA, room temp 20 min (gel 4 C); FP: 0.25-1 nM FAM-RNA, 100 mM NaCl, 20 mM bis-tris/10 mM HCl, 1 mM TCEP, 5% glycerol, 1 mM EDTA, yeast tRNA, BSA. The note with it: protein: recombinant; tags: His on Lsm8 and GST on Lsm6, removed by TEV; copies: 1;1;1;1;1;1;1; label: 5' 6-FAM.

Data set [2] concerns the target T1, Lsm2-8 complex. The data set can be described thus: fluorescence polarization; Hill 1.0; EMSA: 5 nM Cy3-U6, 100 mM KCl, 20% sucrose, 20 mM bis-tris/10 mM HCl, 1 mM EDTA, 1 mM TCEP, 0.01% Triton X-100, 0.1 mg/mL tRNA, 0.01 mg/mL heparin, 0.1 mg/mL BSA, room temp 20 min (gel 4 C); FP: 0.25-1 nM FAM-RNA, 100 mM NaCl, 20 mM bis-tris/10 mM HCl, 1 mM TCEP, 5% glycerol, 1 mM EDTA, yeast tRNA, BSA. The note with it: protein: recombinant; tags: His on Lsm8 and GST on Lsm6, removed by TEV; copies: 1;1;1;1;1;1;1; label: 5' 6-FAM.

Data set [3] addresses T1, Lsm2-8 complex. Put plainly: fluorescence polarization; Hill 1.6; EMSA: 5 nM Cy3-U6, 100 mM KCl, 20% sucrose, 20 mM bis-tris/10 mM HCl, 1 mM EDTA, 1 mM TCEP, 0.01% Triton X-100, 0.1 mg/mL tRNA, 0.01 mg/mL heparin, 0.1 mg/mL BSA, room temp 20 min (gel 4 C); FP: 0.25-1 nM FAM-RNA, 100 mM NaCl, 20 mM bis-tris/10 mM HCl, 1 mM TCEP, 5% glycerol, 1 mM EDTA, yeast tRNA, BSA. The note with it: protein: recombinant; tags: His on Lsm8 and GST on Lsm6, removed by TEV; copies: 1;1;1;1;1;1;1; label: 5' 6-FAM.

Data set [4] deals with T2, Lhp1 (yeast La protein) (Saccharomyces cerevisiae, UniProt P33399 1-275).
T2 sequence: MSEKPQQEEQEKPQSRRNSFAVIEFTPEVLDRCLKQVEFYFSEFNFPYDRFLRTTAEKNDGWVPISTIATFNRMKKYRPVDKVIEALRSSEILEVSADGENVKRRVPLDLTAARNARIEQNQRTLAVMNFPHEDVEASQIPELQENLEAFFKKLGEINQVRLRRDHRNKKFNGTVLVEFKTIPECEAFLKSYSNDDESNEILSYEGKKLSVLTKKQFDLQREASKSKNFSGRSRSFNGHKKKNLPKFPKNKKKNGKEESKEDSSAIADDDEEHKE
Put plainly: fluorescence polarization; Hill 1.27; EMSA: 5 nM Cy3-U6, 100 mM KCl, 20% sucrose, 20 mM bis-tris/10 mM HCl, 1 mM EDTA, 1 mM TCEP, 0.01% Triton X-100, 0.1 mg/mL tRNA, 0.01 mg/mL heparin, 0.1 mg/mL BSA, room temp 20 min (gel 4 C); FP: 0.25-1 nM FAM-RNA, 100 mM NaCl, 20 mM bis-tris/10 mM HCl, 1 mM TCEP, 5% glycerol, 1 mM EDTA, yeast tRNA, BSA. The settings on record: protein: recombinant; tags: N-terminal His8-TEV; label: 5' 6-FAM.

Data set [5] deals with T2, Lhp1 (yeast La protein). The data set can be described thus: fluorescence polarization; Hill 1.11; EMSA: 5 nM Cy3-U6, 100 mM KCl, 20% sucrose, 20 mM bis-tris/10 mM HCl, 1 mM EDTA, 1 mM TCEP, 0.01% Triton X-100, 0.1 mg/mL tRNA, 0.01 mg/mL heparin, 0.1 mg/mL BSA, room temp 20 min (gel 4 C); FP: 0.25-1 nM FAM-RNA, 100 mM NaCl, 20 mM bis-tris/10 mM HCl, 1 mM TCEP, 5% glycerol, 1 mM EDTA, yeast tRNA, BSA. The note with it: protein: recombinant; tags: N-terminal His8-TEV; label: 5' 6-FAM.

Here are results for 4 molecules from article PMC5591277, “Usb1 controls U6 snRNP assembly through evolutionarily divergent cyclic phosphodiesterase activities”.

Regarding AGAGAUUUAUUUCGUUUU (ssRNA, 3' phosphate) [U6 95-112 3'P], the Kd in data set [1] was found to be 10 ± 1 nM.

For AGAGAUUUAUUUCGUUUUU (ssRNA, 3' phosphate) [U6 95-112+1U 3'P], the Kd in data set [2] was 3 ± 1 nM.

As for AGAGAUUUAUUUCGUUUU (ssRNA, 2',3'-cis-diol end) [U6 95-112 3'OH], the Kd in data set [3] was 85 ± 1 nM; in data set [4], 43 ± 1 nM.

AGAGAUUUAUUUCGUUUUU (ssRNA, 2',3'-cis-diol end) [U6 95-112+1U 3'OH]: the Kd in data set [2] was found to be 17 ± 1 nM; in data set [5] it was 29 ± 1 nM.
